According to patent US20250313644A1:

Experiments:
[1] = target: human TL1A (HuTL1A) (human) (UniProt O95150); assay: ELISA: biotin-HuTL1A on streptavidin plate, antibody diluted at pH 5.8, HRP-anti-human Fc, OD450
FASL [2] = target: FASL (UniProt P48023); assay: ELISA, coated FASL, Ab 0.000 nM (blank)
TNFα [3] = target: TNFα (UniProt P01375); assay: ELISA, coated TNF-α, Ab 100 nM
LIGHT [4] = target: LIGHT (UniProt O43557); assay: ELISA, coated LIGHT, Ab 100 nM
LIGHT [5] = target: LIGHT (UniProt O43557); assay: ELISA, coated LIGHT, Ab 0.391 nM
[6] = target: human TL1A (HuTL1A) (human) (UniProt O95150); assay: DLS, antigen and antibody mixed in equal moles
TNFα [7] = target: TNFα (UniProt P01375); assay: ELISA, coated TNF-α, Ab 1.563 nM
[8] = target: human TL1A (HuTL1A) (human) (UniProt O95150); assay: ELISA: biotin-HuTL1A on streptavidin plate, antibody diluted at pH 7.4, HRP-anti-human Fc, OD450
LIGHT [9] = target: LIGHT (UniProt O43557); assay: ELISA, coated LIGHT, Ab 0.000 nM (blank)
LT-α [10] = target: T1, LT-α (UniProt P01374); assay: ELISA, coated LT-α, Ab 25 nM
T1 sequence (looked up): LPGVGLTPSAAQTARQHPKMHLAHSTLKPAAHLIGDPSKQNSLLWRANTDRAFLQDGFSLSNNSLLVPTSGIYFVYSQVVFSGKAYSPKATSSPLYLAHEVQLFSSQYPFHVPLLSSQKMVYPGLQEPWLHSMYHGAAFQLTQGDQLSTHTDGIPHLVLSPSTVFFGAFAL

LIGHT [11] = target: LIGHT (UniProt O43557); assay: ELISA, coated LIGHT, Ab 25 nM
LT-α [12] = target: T1, LT-α; assay: ELISA, coated LT-α, Ab 100 nM
TNFα [13] = target: TNFα (UniProt P01375); assay: ELISA, coated TNF-α, Ab 0.000 nM (blank)
[14] = target: human TL1A (HuTL1A) (human) (UniProt O95150)
LT-α [15] = target: T1, LT-α; assay: ELISA, coated LT-α, Ab 0.000 nM (blank)
LT-α [16] = target: T1, LT-α; assay: ELISA, coated LT-α, Ab 1.563 nM
FASL [17] = target: FASL (UniProt P48023); assay: ELISA, coated FASL, Ab 6.25 nM
LIGHT [18] = target: LIGHT (UniProt O43557); assay: ELISA, coated LIGHT, Ab 1.563 nM
FASL [19] = target: FASL (UniProt P48023); assay: ELISA, coated FASL, Ab 100 nM
FASL [20] = target: FASL (UniProt P48023); assay: ELISA, coated FASL, Ab 0.391 nM
FASL [21] = target: FASL (UniProt P48023); assay: ELISA, coated FASL, Ab 25 nM
TNFα [22] = target: TNFα (UniProt P01375); assay: ELISA, coated TNF-α, Ab 6.25 nM
LT-α [23] = target: T1, LT-α; assay: ELISA, coated LT-α, Ab 6.25 nM
[24] = target: human TL1A (HuTL1A) (human) (UniProt O95150); assay: competition ELISA: antibody dilution mixed 1:1 with Biotin-TL1A, added to coated DcR3 (1 µg/mL), Streptavidin-HRP, OD450; blocked partner of TL1A: DcR3
[25] = target: human TL1A (HuTL1A) (human) (UniProt O95150); remark: listed apart in the source
FASL [26] = target: FASL (UniProt P48023); assay: ELISA, coated FASL, Ab 1.563 nM
TNFα [27] = target: TNFα (UniProt P01375); assay: ELISA, coated TNF-α, Ab 25 nM
LT-α [28] = target: T1, LT-α; assay: ELISA, coated LT-α, Ab 0.391 nM
LIGHT [29] = target: LIGHT (UniProt O43557); assay: ELISA, coated LIGHT, Ab 6.25 nM
TNFα [30] = target: TNFα (UniProt P01375); assay: ELISA, coated TNF-α, Ab 0.391 nM

Sequence of LIGHT (O43557 74-240 limits assumed): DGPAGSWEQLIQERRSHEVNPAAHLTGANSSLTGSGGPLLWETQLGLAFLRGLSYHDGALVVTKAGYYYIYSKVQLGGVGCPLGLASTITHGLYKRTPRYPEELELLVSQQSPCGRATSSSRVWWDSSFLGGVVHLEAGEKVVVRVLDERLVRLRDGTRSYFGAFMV
Sequence of TNFα (P01375 77-233 limits assumed): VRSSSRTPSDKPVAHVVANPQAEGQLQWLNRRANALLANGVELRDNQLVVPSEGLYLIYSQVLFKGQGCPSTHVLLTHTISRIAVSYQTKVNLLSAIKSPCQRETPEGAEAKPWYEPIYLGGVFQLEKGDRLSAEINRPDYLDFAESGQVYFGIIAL
Sequence of FASL (P48023 134-281 limits assumed): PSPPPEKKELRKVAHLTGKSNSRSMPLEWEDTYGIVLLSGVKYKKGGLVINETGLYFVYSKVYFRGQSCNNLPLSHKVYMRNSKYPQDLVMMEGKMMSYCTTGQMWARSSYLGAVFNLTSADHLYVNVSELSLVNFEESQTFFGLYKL
Sequence of BM1 antibody (Pfizer/Roivant TL1A monoclonal antibody RVT-3101) (VH): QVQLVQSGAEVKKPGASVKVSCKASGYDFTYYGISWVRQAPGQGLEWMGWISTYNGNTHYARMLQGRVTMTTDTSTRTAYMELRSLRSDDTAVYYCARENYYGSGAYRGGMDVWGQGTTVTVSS
Sequence of BM1 antibody (Pfizer/Roivant TL1A monoclonal antibody RVT-3101) (VL): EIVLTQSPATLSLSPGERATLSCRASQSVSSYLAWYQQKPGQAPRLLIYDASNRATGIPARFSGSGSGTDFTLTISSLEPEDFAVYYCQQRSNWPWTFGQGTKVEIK
Sequence of human TL1A (HuTL1A) (human) (O95150 57-251 limits assumed): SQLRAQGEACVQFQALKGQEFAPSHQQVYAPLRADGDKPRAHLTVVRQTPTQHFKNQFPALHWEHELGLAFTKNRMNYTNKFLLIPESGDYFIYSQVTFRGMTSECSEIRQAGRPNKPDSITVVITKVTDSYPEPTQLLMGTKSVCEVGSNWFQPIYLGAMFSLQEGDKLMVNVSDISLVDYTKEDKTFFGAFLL

BM1 antibody (Pfizer/Roivant TL1A monoclonal antibody RVT-3101)
EC50 (read off the curve) [1]: 0.1 nM
OD450 nm (FASL [2]): 0.0544
OD450 nm (TNFα [3]): 0.0815
OD450 nm (LIGHT [4]): 0.0996
OD450 nm (LIGHT [5]): 0.0834
Ave Z-dia (nm) of the antigen-antibody complex [6]: 85.7 nm
OD450 nm (TNFα [7]): 0.0523
EC50 (read off the curve) [8]: 0.1 nM
OD450 nm (LIGHT [9]): 0.0644
OD450 nm (LT-α [10]): 0.0845
OD450 nm (LIGHT [11]): 0.0916
OD450 nm (LT-α [12]): 0.0823
OD450 nm (TNFα [13]): 0.0666
IC50 (read off the curve); SEAP reporter in HEK293T/DR3-NFκB cells with soluble TL1A, OD655 [14]: 2 nM
OD450 nm (LT-α [15]): 0.0972
OD450 nm (LT-α [16]): 0.095
OD450 nm (FASL [17]): 0.0513
OD450 nm (LIGHT [18]): 0.0887
OD450 nm (FASL [19]): 0.0855
OD450 nm (FASL [20]): 0.051
OD450 nm (FASL [21]): 0.0609
OD450 nm (TNFα [22]): 0.0511
OD450 nm (LT-α [23]): 0.0909
IC50 (read off the curve) [24]: 0.2 mg/L
IC50 (read off the curve); IFN-γ of human T cells with IL-12, IL-18 and exogenous human TL1A [25]: 0.5 nM
OD450 nm (FASL [26]): 0.0518
OD450 nm (TNFα [27]): 0.0601
OD450 nm (LT-α [28]): 0.0978
OD450 nm (LIGHT [29]): 0.0903
OD450 nm (TNFα [30]): 0.0539
